One assay relates to THP-1 cells. Briefly: THP-1 cell adherence to immobilized Fg. Format: cell-based. The method, then: Cell adherence assay using cell lines—A monocytic cell line THP-1 cell stably expressing αMβ2 was maintained in RPMI1640 supplemented with 10% fetal bovine serum, […] L-glutamine, 100 units/ml penicillin and 100 μg/ml streptomycin. Prior to use, cells were harvested by centrifuge, washed and suspended in RPMI 1640/1% human serum albumin. For cell adherence assays, 48-well plates were coated with 200 μl of Fibrinogen (10 μg/ml) overnight at 4° C. followed by 1 hour at 37° C. before blocking with 1% Polyvinylpyrrolidone (PVP 3600 kDa) for 45 minutes at 37° C. Subsequently, the cells were seeded 2×10^5/well in the presence or absence of Coa or Efb recombinant proteins or peptides and incubated at 37° C. for 25 minutes. Non-adherent cells were removed by washing gently three times with PBS/1% BSA. Adherent cells were quantitated with CyQuant kit according to the manufacturer's manual.

In another assay the target is T1, rEfb-N binding to Fg (Homo sapiens, UniProt P02671+P02675+P02679).
T1 construct: full-length human Fibrinogen (diluted in PBS, Enzyme research); purchased Enzyme research; host or cells: Efb probe made in E. coli
T1 sequence (P02671 20-629 limits assumed): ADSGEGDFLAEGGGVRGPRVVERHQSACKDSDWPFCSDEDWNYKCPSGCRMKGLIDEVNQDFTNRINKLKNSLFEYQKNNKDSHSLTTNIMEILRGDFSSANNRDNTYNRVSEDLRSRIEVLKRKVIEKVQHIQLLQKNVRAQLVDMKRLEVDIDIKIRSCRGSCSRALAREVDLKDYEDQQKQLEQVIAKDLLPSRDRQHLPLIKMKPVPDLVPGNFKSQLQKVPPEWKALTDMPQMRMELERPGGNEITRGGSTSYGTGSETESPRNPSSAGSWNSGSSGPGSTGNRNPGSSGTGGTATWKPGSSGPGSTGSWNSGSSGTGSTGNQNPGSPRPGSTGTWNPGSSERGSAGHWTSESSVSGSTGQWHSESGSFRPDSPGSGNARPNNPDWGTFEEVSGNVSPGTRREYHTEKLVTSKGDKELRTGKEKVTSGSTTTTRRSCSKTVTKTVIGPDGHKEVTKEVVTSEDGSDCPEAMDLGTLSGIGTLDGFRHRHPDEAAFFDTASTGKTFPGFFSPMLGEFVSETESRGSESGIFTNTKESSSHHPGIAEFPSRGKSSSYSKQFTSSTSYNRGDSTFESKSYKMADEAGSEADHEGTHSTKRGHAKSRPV
T1 sequence (P02675 31-491): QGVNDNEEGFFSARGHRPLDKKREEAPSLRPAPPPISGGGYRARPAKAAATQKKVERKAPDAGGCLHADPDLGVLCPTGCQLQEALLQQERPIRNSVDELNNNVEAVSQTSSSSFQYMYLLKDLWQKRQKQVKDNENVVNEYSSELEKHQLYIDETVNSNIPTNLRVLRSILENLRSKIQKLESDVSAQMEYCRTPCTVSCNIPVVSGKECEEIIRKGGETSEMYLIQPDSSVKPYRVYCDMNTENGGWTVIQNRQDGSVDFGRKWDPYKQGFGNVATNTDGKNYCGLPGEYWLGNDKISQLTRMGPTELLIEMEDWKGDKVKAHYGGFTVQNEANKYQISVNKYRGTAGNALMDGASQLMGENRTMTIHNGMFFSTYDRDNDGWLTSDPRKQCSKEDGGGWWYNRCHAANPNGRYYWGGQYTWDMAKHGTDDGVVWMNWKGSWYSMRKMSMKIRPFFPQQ
T1 sequence (P02679 27-453): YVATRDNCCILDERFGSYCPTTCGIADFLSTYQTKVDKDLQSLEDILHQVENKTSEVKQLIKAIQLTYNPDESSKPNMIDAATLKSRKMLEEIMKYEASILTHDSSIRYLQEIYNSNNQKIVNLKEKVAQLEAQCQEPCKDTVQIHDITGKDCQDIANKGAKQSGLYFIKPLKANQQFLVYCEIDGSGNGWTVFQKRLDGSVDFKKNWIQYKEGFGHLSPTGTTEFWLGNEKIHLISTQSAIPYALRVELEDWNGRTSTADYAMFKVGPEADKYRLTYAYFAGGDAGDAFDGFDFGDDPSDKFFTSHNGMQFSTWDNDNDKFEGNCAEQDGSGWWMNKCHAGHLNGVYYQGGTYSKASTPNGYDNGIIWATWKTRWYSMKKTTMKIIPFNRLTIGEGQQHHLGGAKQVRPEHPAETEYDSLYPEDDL
Briefly: Competition ELISA, peptide inhibition of rEfb-N (Efb 30-104) binding to Fg. The conditions noted are these: increasing concentration of peptides; 2 nM GST fusion protein. The text has this:
Coa-F contains an Efb like fibrinogen binding motif. FIG. 11A is an image of a ClustalW alignment of amino acid sequence from Efb-O (Efb 68-98) and Coa from Newman strain (col-Newman). Sequence similarity was identified at Coa 474-505. Bold letters denote conserved residues and underlined letters represent similar residues. FIGS. 11B and 11C show a comparison of amino acid sequence of Efb-O with Coa 474-505 (FIG. 11B) and Coa 506-532 (FIG. 11C). Large letters in Efb-O indicate the residues important for Fg binding. The red letters show the identical residues and the yellow letters indicate the similar residues. […] Increasing concentration of Coa peptides was incubated with 2 nM GST fusion proteins in Fg-coated microtiter wells. Closed square, sCoa-O; closed circle, sCoa-RI; closed triangle, sEfb-O.
A peptide was synthesized that corresponds to the Coa-O sequence (sCoa-O) and determined its Fg binding activity in a competition ELISA. Microtiter wells were coated with Fg and binding of the recombinant N-terminal segment of Efb (rEfb-N), that harbors the two Fg binding sites, was quantitated in the presence of increasing concentration of different synthetic peptides.
In the case of peptide inhibition assay, various concentration of Efb or Coa peptides were mixed with a fixed concentration of Coa-GST or Efb-GST fusion proteins (5-10 nM) in TBS and the bound GST fusion proteins were detected through incubation with HRP-conjugated rabbit anti-GST polyclonal antibodies (5000× dilution). All proteins were diluted in TBS containing 1% BSA and 0.05% TWEEN® 20 and the ELISA assays were carried out at room temperature.
(In general: An ELISA detects its analyte on a solid surface through an enzyme-linked reagent.)

In assay [1] the test system is Coa-F, Coa-R0, Efb-N, Efb-O, Efb-A binding to Fg. Briefly: Inhibition by FBE5 scFv-Fc of Coa and Efb fragment binding to immobilized human Fg. Set-up: species or system Staphylococcus aureus. Conditions: scFv-Fc 0.5, 5, 50 μg/ml; for inhibition of binding to Fg of all proteins tested: Coa-F, Coa-R0, Efb-N, Efb-O 10 nM, Efb-A 750 nM. How it is done: To assess the inhibitory activity of anti-Coa scFv-Fc antibodies, 0.5 μg/well of human Fg was immobilized at 4° C. overnight in 50 mM Carbonate Buffer, pH 9.6. Indicated amounts (50, 5, 0.5 μg/ml) of scFv-Fcs prepared in 2% BSA+1×TBS+0.05% TWEEN® 20 were pre-incubated for 1 hour with a constant concentration of Coa or Efb fragments also prepared in 2% BSA+1×TBS+0.05% TWEEN® 20 at room temperature, 250 rpm shaking. Specifically, Coa-F, Coa-R0, Efb-N and Efb-O were at a fixed concentration of 10 nM; whereas Efb-A was at 750 nM. Fg-binding activity of each protein alone was also checked (no mAb control—0 μg/ml). The Fg-coated plate was blocked with 2% BSA-TBST and washed with PBST. […] Residual bound Coa and Efb fragments were detected with HRP-conjugated (HorseRadish Peroxidase-conjugated) α-GST-tag antibody, except for Efb-N, where an HRP-conjugated α-HIS-tag was used (see FIG. 18). HRP-tagged antibodies were diluted in 2% BSA+1×TBS+0.05% TWEEN® 20 and used at 1:10000 dilution. […] HRP signal was developed using […]™ OPD tablets using manufacturer's guidelines. Binding of Coa and Efb fragments to Fg (no mAb control) was set to 100% and residual binding to Fg of Coa and Efb fragments in the presence of different concentrations of antibodies was calculated and represented.
To assess the inhibitory activity of anti-Coa scFv-Fc antibodies, 0.5 μg/well of human Fg was immobilized at 4° C. overnight in 50 mM Carbonate Buffer, pH 9.6. Indicated amounts (0, 0.5, 5, and 50 μg/ml) of scFv-Fcs were pre-incubated for 1 hour with a constant concentration of Coa or Efb fragments. Specifically, Coa-F, Coa-R0, Efb-N and Efb-O were at a fixed concentration of 10 nM; whereas Efb-A was at 750 nM. Fg-binding activity of each protein alone was also checked (no mAb control—0 μg/ml). The Fg-coated plate was blocked with 2% BSA-PBST and washed with PBST. The pre-incubated mixture of Coa/Efb and anti-Coa scFv-Fc was transferred on the Fg-coated plate. Residual bound Coa and Efb fragments were detected with HRP-conjugated (HorseRadish Peroxidase-conjugated) α-GST-tag antibody, except for Efb-N, where an HRP-conjugated α-HIS-tag was used. Binding of Coa and Efb fragments to Fg (no mAb control) was set to 100% and residual binding to Fg of Coa and Efb fragments in the presence of different concentrations of antibodies was calculated and represented.

“Also recorded” adds a separate entry of the source.

With “sCoa-O: synthetic peptide corresponding to Coa-O, residues Coa 474-505 (KYVKYRDAGTGIREYNDGTFGYEARPRFNKPS)”, the “inhibition of THP-1 adherence to immobilized Fg” value with THP-1 cells (M1/70 20 μg/ml, rEfb 0.2 μM, rCoa 0.5 μM, peptides 0.5 μM each) is “did not inhibit THP-1 adherence”. In addition, in the assay with THP-1 cells (peptide 50 μM preincubated with rEfb (0.2 μM) or rCoa (0.2 μM)), the “reversal of inhibition of THP-1 adherence elicited by rEfb or rCoa” value is “reverses the inhibitory activities”. For the same molecule, the “inhibition of rEfb-N binding to Fg” value with rEfb-N binding to Fg is reported as “potent inhibitor; also recorded: effectively inhibited rEfb-N binding to Fg”.

B1: FBE5-A12: VH SEQ ID NO: 73, VL SEQ ID NO: 103 (antibody, V domains shown)
VH: QVQLVESGGGVVQPGRSLRLSCAASGFTFSSYGMHWVRQAPGKGLEWVAVISYDGSNKYYADSVKGRFTISRDNSKNTLYLQMNSLRGEDTAVYYCAREGGWEPNGLDYWGQGTLVTVSS
VL: QAVLTQPPSASGTPGQRVTISCSGSDFNVGTNYVNWYQQLPGSAPKLLIYRNNQRPSGVPDRFSGSKSGTSATLGITGLQTGDEADYYCGTWDSSLSAEVFGGGTKLTVL
Take B1: in assay [1], the “inhibition of CoaF, CoaRO and EfbA binding to Fg” value is “clear inhibition”; the “inhibition of EfbN and EfbO binding to Fg” value is “less efficient”; the “inhibition of binding to Fg of all proteins tested” value was “dose dependent inhibition of all proteins tested”.

B2: FBE5-F9: VH SEQ ID NO: 80, VL SEQ ID NO: 110 (antibody, V domains shown)
VH: QMQLVQSGGGVVQPGRSLRLSCAASGFTFSSYGMHWVRQAPGKGLEWVAVISYDGSNKYYADSVKGRFTISRDNSKNTLYLQMNSLRAEDTAVYYCAKEGDGDYGGVLDYWGQGTLVTVSS
VL: QSVLTQPPSVSAAPGQKVTISCSGSSSNIEKNYVSWYQQLPGTAPKLLIYDNNKRPSGIPDRFSGSKSGTSATLGITGLQTGDEADYYCGTWDSSLSAVVFGGGTKLTVL
For B2, in assay [1], the “inhibition of CoaF, CoaRO and EfbA binding to Fg” value was “clear inhibition”; the “inhibition of EfbN and EfbO binding to Fg” value is on record as “less efficient”; the “inhibition of binding to Fg of all proteins tested” value is “dose dependent inhibition of all proteins tested”.

The values above are taken from US11407819B2, “Compositions and use of a fibrinogen binding motif present in EFB and COA for therapeutics and vaccines against Staphylococcus aureus” (priority 2013, dated 2022).
